Changes are numbered by the printed parent chain. In names and notes the source's numbering stands.
B1: CyPPO19 R89A + A167L + V305L + F360T: variant of CyPPO19 PPO protein (SEQ ID NO: 1) (protein)
chain: MSEVDVAIVGGGLSGLSLAWRLQQSAPQYSVVLLEASDRLGGNITTQTAEGFVWELGPNSFAPTPALLQLIAEVGLQSELIRGDRHLPAYIYWRGQLYPLQPTRPLALATSNLLSPWGKVRAALGALGFVPPYLGSGDESVNSFFRRHLGQEVAERLVAPFVSGVYLGDPQQLSAAAAFRRIAQLEKLGGGLIAGALHLRRQQAPKPKPPTSVQMRPGELGSFKEGLAALPRAIAQQLKAPIHLQTPVQEITPDPKGGYLLRSGEQTWRARSVVLATPAYQTAELVAPFQPAIARVLATIPYPTLACVVLAYPAGLGRSVRPGFGVLIPRSQGIRTLGTIWSSCLFPQRTPAGWQVFTSTIGGATDPDLASLSEEAIVQQVQQDLNRLLDLPAAKARLLGMKVWRRAIPQYMVGYPEQWQQVTHALSQTPGLFLCSNYAEGVALGDRVEHGNRTAAAVAAYLSGGQP
modifications: Synthetic_PPO of Thermosynechococcus elongatus PKUAC-SCTE542 (comprising GenBank No. CP032152.1)
B2: CyPPO19 R89A + A167L + L327T + F360I: variant of CyPPO19 PPO protein (SEQ ID NO: 1) (protein)
chain: B1 chain with L305V, L327T, T360I
modifications: Synthetic_PPO of Thermosynechococcus elongatus PKUAC-SCTE542 (comprising GenBank No. CP032152.1)
B3: CyPPO19 R89A + A167C + I408R + F360M: variant of CyPPO19 PPO protein (SEQ ID NO: 1) (protein)
chain: B1 chain with L167C, L305V, T360M, I408R
modifications: Synthetic_PPO of Thermosynechococcus elongatus PKUAC-SCTE542 (comprising GenBank No. CP032152.1)

test system: PPO-deficient BT3 E. coli (ΔPPO); test: PPO-inhibiting herbicide tolerance test of PPO variants in E. coli (growth on herbicide-containing LB agar); format: cell-based; conditions: CyPPO19 variants in BT3 (ΔPPO) E. coli; LB agar with 0 to 2,000 μM herbicide, 37° C., dark, 16-20 hours
Outline: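 Transformants were grown to OD600 0.5–1, adjusted to OD600=0.5 and spotted as 10-fold dilutions on LB agar with ampicillin (100 μg/mL) and 0 to 2,000 μM herbicide. Plates were kept at 37° C in the dark for 16-20 hours; growth was scored relative to wild type, one '+' per 10-fold resistance.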

Molecule | tolerance level relative to wild type, Carfentrazone | tolerance level relative to wild type, Flumioxazin | tolerance level relative to wild type, Fomesafen | tolerance level relative to wild type, Oxyfluorfen | tolerance level relative to wild type, Saflufenacil | tolerance level relative to wild type, Sulfentrazone | tolerance level relative to wild type, Tiafenacil
B1 | + (‘+’ per each 10-fold resistance) | ++ (‘+’ per each 10-fold resistance) | ++ (‘+’ per each 10-fold resistance) | ++ (‘+’ per each 10-fold resistance) | +++ (‘+’ per each 10-fold resistance) | ++ (‘+’ per each 10-fold resistance) | +++ (‘+’ per each 10-fold resistance)
B2 | ++ (‘+’ per each 10-fold resistance) | ++++ (‘+’ per each 10-fold resistance) | +++ (‘+’ per each 10-fold resistance) | +++++ (until ‘+++++’ as maximal resistance) | ++++ (‘+’ per each 10-fold resistance) | ++++ (‘+’ per each 10-fold resistance) | ++++ (‘+’ per each 10-fold resistance)
B3 | + (‘+’ per each 10-fold resistance) | ++++ (‘+’ per each 10-fold resistance) | ++ (‘+’ per each 10-fold resistance) | ++ (‘+’ per each 10-fold resistance) | +++ (‘+’ per each 10-fold resistance) | ++ (‘+’ per each 10-fold resistance) | +++ (‘+’ per each 10-fold resistance)

From US12698507B2, “Methods and compositions for conferring and/or enhancing herbicide tolerance using protoporphyrinogen IX oxidase of various cyanobacteria or variant thereof” (FarmHannong Co., Ltd., priority 2019, dated 2026)
